Test results taken from patent US20070287670A1 (Bristol-Myers Squibb, published 2007).
One block for each binder: values may come before it. Where no end group is shown, it is not given here. [ ]: non-standard residue; d: D form. Bip = N[C@@H](Cc1ccc(-c2ccccc2)cc1)C(=O)O

Target: Full-length human glucagon-like peptide 1 receptor (human, UniProt P43220 24-463)
Test: cell-based or functional assay

- cAMP production (EC50), cAMP cell-based assay in CHO-GLP-1R-19 cells: 1100 nM
B1: GLP-1 11-mer peptide analog His-Ala-Glu-Gly-Thr-Phe-Thr-Ser-Asp-Bip-Bip-NH2 (peptide)
peptide: HAEGTFTSD[Bip][Bip]-NH2
modifications: N-terminus assumed
SMILES: C[C@H](NC(=O)[C@@H](N)Cc1c[nH]cn1)C(=O)N[C@@H](CCC(=O)O)C(=O)NCC(=O)N[C@H](C(=O)N[C@@H](Cc1ccccc1)C(=O)N[C@H](C(=O)N[C@@H](CO)C(=O)N[C@@H](CC(=O)O)C(=O)N[C@@H](Cc1ccc(-c2ccccc2)cc1)C(=O)N[C@@H](Cc1ccc(-c2ccccc2)cc1)C(N)=O)[C@@H](C)O)[C@@H](C)O

- cAMP production (EC50), cAMP cell-based assay in CHO-GLP-1R-19 cells: > 1 millimolar
Binder: HAEGTFTSD-NH2
